Results: patent publication US7067646 (Dana-Farber, dated 2006)

Key:
[1] = target: T1, MTAF600 (microtubule associated factor 600) (human, UniProt Q5T4S7 1-5183); experiment: co-immunoprecipitation from HeLa extract, immunoblot
T1 construct: Native endogenous protein of HeLa nuclear extracts (5183 residues); also called MT-associated factor (MTAF) 600; 600 kDa subunit

[2] = target: T1, MTAF600 (microtubule associated factor …); experiment: anti-FLAG immunoprecipitation of f:RB from HeLa nuclear extract, SDS-PAGE
[3] = target: T1, MTAF600 (microtubule associated factor …); experiment: GST pull-down from HeLa nuclear extract, immunoblot
[4] = target: T1, MTAF600 (microtubule associated factor …); experiment: MTAF600 immobilised on matrix incubated with GST-RB, immunoblot
[5] = target: endogenous RB family proteins; experiment: cell-based or functional assay

T1 sequence (Q5T4S7 other isoform, or with tags, fused parts or gaps limits assumed): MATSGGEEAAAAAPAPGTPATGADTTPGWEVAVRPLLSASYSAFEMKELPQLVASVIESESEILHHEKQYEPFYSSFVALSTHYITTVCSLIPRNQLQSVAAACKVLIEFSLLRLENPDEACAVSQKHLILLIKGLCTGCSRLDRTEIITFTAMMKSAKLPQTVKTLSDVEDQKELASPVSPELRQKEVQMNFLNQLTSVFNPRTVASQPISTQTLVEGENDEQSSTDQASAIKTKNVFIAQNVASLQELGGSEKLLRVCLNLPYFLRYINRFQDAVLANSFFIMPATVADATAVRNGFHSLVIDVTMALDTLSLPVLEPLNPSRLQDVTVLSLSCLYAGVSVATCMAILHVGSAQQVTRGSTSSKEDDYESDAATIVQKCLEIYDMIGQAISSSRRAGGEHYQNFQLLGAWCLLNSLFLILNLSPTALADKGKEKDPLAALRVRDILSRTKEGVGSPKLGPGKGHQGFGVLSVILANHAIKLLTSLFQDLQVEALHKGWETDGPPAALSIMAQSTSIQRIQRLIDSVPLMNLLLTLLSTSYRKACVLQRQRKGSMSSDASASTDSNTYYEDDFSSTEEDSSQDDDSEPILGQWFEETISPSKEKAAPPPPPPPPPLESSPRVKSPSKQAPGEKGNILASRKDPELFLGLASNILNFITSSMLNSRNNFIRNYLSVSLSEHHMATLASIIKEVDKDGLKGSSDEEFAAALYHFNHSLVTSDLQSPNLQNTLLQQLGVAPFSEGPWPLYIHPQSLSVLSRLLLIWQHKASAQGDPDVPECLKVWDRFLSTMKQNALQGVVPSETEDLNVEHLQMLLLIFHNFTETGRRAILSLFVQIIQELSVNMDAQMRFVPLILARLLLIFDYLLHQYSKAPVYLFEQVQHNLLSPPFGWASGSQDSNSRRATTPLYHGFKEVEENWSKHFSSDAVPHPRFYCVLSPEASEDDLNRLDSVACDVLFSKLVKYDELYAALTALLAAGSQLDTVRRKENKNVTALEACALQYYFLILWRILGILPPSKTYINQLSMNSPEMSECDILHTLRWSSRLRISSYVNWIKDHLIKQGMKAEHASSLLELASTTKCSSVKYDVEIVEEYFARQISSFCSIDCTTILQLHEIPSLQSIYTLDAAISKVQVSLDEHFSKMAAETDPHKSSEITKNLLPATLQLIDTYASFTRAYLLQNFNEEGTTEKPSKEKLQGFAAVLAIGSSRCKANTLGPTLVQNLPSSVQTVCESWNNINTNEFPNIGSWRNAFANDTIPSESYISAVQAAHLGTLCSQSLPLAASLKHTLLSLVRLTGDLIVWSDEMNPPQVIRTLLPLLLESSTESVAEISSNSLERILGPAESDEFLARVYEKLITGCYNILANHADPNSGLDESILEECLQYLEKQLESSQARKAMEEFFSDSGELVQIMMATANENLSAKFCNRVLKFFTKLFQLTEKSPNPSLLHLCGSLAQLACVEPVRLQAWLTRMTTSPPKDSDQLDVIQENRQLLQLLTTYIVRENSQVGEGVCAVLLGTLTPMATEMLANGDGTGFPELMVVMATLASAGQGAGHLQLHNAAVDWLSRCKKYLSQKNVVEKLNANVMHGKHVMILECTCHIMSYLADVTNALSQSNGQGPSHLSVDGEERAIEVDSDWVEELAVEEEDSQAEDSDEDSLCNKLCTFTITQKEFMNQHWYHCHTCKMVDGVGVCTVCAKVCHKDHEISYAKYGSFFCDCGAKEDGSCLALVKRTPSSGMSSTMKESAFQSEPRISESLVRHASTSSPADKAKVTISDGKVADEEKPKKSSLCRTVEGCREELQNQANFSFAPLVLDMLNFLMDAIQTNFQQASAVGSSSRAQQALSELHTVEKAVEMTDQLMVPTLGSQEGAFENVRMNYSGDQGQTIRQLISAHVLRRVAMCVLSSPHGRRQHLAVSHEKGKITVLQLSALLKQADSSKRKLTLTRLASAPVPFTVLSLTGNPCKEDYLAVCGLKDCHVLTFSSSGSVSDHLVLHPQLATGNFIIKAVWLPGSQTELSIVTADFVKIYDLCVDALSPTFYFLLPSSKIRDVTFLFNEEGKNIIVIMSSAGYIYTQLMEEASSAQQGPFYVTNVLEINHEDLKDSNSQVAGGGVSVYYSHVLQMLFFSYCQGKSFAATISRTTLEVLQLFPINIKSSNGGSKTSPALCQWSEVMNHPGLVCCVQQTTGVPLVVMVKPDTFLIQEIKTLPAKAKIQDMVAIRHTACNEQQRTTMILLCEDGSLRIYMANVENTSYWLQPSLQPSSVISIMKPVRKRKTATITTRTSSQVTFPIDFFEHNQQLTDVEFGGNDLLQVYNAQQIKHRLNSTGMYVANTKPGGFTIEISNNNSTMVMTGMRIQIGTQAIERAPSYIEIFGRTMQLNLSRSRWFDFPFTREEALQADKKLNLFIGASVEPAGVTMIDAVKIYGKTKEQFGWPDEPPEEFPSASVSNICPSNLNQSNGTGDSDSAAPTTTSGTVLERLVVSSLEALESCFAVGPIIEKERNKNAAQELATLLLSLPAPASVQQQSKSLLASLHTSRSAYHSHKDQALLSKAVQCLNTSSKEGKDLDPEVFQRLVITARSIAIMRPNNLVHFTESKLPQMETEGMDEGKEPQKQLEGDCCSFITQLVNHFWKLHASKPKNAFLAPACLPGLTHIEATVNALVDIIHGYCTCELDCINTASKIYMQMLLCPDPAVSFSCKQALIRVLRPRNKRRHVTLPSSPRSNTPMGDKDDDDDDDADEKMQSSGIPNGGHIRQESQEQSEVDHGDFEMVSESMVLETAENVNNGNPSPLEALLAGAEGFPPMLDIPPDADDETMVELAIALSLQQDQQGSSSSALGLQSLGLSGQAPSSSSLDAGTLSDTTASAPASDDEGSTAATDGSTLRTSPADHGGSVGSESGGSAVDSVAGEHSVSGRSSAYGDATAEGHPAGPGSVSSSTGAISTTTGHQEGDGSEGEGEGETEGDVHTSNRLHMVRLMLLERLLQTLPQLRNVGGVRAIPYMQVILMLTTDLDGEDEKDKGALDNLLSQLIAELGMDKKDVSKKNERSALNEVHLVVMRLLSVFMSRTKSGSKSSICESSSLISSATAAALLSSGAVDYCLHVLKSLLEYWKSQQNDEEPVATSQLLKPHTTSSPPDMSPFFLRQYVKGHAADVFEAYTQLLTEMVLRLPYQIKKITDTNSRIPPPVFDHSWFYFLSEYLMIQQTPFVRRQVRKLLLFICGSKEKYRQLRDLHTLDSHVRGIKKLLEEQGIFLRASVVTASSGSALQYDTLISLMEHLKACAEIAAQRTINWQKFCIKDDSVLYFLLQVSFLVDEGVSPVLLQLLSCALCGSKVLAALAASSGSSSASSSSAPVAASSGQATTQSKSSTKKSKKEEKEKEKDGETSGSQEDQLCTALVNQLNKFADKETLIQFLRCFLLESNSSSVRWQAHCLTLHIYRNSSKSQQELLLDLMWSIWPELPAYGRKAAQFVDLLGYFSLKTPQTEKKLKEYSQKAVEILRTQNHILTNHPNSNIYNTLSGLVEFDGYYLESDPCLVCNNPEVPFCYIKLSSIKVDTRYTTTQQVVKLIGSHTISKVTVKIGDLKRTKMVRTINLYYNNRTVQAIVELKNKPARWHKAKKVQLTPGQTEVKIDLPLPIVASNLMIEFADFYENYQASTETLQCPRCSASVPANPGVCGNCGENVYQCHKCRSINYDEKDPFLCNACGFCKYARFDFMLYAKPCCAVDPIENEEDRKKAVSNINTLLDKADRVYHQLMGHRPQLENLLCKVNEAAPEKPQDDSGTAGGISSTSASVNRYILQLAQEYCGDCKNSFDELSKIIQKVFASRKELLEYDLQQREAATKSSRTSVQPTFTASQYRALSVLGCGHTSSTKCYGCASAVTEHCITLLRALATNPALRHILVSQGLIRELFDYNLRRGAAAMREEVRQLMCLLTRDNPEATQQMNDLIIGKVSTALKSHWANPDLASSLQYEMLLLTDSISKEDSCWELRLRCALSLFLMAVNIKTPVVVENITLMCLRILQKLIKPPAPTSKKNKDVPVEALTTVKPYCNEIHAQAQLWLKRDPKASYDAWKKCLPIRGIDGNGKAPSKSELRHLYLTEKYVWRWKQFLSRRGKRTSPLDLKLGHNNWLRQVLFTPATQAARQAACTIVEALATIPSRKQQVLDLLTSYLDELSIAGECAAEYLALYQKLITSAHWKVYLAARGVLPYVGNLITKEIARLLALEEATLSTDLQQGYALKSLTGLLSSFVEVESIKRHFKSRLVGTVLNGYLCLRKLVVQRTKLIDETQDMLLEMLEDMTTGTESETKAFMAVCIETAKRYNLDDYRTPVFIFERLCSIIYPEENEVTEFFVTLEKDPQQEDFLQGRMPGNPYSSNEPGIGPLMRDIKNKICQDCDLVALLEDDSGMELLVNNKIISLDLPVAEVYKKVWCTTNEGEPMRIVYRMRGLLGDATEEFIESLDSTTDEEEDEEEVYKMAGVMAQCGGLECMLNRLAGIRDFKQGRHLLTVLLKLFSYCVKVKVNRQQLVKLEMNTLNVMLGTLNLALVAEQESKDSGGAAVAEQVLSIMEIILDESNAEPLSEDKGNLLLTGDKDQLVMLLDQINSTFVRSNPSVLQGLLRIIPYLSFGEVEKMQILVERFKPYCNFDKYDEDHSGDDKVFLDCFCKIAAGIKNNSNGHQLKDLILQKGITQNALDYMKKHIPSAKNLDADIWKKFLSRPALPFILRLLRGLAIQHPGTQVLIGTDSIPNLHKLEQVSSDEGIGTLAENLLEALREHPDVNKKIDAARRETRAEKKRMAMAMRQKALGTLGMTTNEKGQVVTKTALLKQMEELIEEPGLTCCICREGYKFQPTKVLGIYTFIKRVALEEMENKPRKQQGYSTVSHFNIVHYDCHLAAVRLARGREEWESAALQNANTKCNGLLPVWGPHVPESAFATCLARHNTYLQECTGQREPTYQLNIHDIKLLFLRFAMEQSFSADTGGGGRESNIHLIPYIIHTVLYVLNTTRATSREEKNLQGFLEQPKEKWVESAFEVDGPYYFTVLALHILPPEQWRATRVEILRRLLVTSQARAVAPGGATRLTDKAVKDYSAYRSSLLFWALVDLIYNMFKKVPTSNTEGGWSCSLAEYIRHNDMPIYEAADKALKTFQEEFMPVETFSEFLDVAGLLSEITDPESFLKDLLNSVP

B1: hypophosphorylated RB (other, human, UniProt P06400 2-928, looked up)
chain: PPKTPRKTAATAAAAAAEPPAPPPPPPPEEDPEQDSGPEDLPLVRLEFEETEEPDFTALCQKLKIPDHVRERAWLTWEKVSSVDGVLGGYIQKKKELWGICIFIAAVDLDEMSFTFTELQKNIEISVHKFFNLLKEIDTSTKVDNAMSRLLKKYDVLFALFSKLERTCELIYLTQPSSSISTEINSALVLKVSWITFLLAKGEVLQMEDDLVISFQLMLCVLDYFIKLSPPMLLKEPYKTAVIPINGSPRTPRRGQNRSARIAKQLENDTRIIEVLCKEHECNIDEVKNVYFKNFIPFMNSLGLVTSNGLPEVENLSKRYEEIYLKNKDLDARLFLDHDKTLQTDSIDSFETQRTPRKSNLDEEVNVIPPHTPVRTVMNTIQQLMMILNSASDQPSENLISYFNNCTVNPKESILKRVKDIGYIFKEKFAKAVGQGCVEIGSQRYKLGVRLYYRVMESMLKSEEERLSIQNFSKLLNDNIFHMSLLACALEVVMATYSRSTSQNLDSGTDLSFPWILNVLNLKAFDFYKVIESFIKAEGNLTREMIKHLERCEHRIMESLAWLSDSPLFDLIKQSKDREGPTDHLESACPLNLPLQNNHTAADMYLSPVRSPKKKGSTTRVNSTANAETQATSAFQTQKPLKSTSLSLFYKKVYRLAYLRLNTLCERLLSEHPELEHIIWTLFQHTLQNEYELMRDRHLDQIMMCSMYGICKVKNIDLKFKIIVTAYKDLPHAVQETFKRVLIKEEEYDSIIVFYNSVFMQRLKTNILQYASTRPPTLSPIPHIPRSPYKFPSSPLRIPGGNIYISPLKSPYKISEGLPTPTKMTPRSRILVSIGESFGTSEKFQKINQMVCNSDRVLKRSAEGSNPPKPLKKLRFDIEGSDEADGSKHLPGESKFQQKLAEMTSTRTRMQKQKMNDSMDTSNKEEK
modifications: hypophosphorylated (sites not given)
notes: also called RB (hypo-phosphorylated)
binding result [1]: binds

B2: hyperphosphorylated RB (other, human, UniProt P06400 2-928, looked up)
chain: PPKTPRKTAATAAAAAAEPPAPPPPPPPEEDPEQDSGPEDLPLVRLEFEETEEPDFTALCQKLKIPDHVRERAWLTWEKVSSVDGVLGGYIQKKKELWGICIFIAAVDLDEMSFTFTELQKNIEISVHKFFNLLKEIDTSTKVDNAMSRLLKKYDVLFALFSKLERTCELIYLTQPSSSISTEINSALVLKVSWITFLLAKGEVLQMEDDLVISFQLMLCVLDYFIKLSPPMLLKEPYKTAVIPINGSPRTPRRGQNRSARIAKQLENDTRIIEVLCKEHECNIDEVKNVYFKNFIPFMNSLGLVTSNGLPEVENLSKRYEEIYLKNKDLDARLFLDHDKTLQTDSIDSFETQRTPRKSNLDEEVNVIPPHTPVRTVMNTIQQLMMILNSASDQPSENLISYFNNCTVNPKESILKRVKDIGYIFKEKFAKAVGQGCVEIGSQRYKLGVRLYYRVMESMLKSEEERLSIQNFSKLLNDNIFHMSLLACALEVVMATYSRSTSQNLDSGTDLSFPWILNVLNLKAFDFYKVIESFIKAEGNLTREMIKHLERCEHRIMESLAWLSDSPLFDLIKQSKDREGPTDHLESACPLNLPLQNNHTAADMYLSPVRSPKKKGSTTRVNSTANAETQATSAFQTQKPLKSTSLSLFYKKVYRLAYLRLNTLCERLLSEHPELEHIIWTLFQHTLQNEYELMRDRHLDQIMMCSMYGICKVKNIDLKFKIIVTAYKDLPHAVQETFKRVLIKEEEYDSIIVFYNSVFMQRLKTNILQYASTRPPTLSPIPHIPRSPYKFPSSPLRIPGGNIYISPLKSPYKISEGLPTPTKMTPRSRILVSIGESFGTSEKFQKINQMVCNSDRVLKRSAEGSNPPKPLKKLRFDIEGSDEADGSKHLPGESKFQQKLAEMTSTRTRMQKQKMNDSMDTSNKEEK
modifications: hyperphosphorylated (sites not given)
notes: also called P-RB
binding result [1]: binds

B3: FLAG-epitope-tagged RB (tag at the N-terminus) (other, UniProt P06400 1-928, looked up, not shown: small tags and cut ends)
chain: MPPKTPRKTAATAAAAAAEPPAPPPPPPPEEDPEQDSGPEDLPLVRLEFEETEEPDFTALCQKLKIPDHVRERAWLTWEKVSSVDGVLGGYIQKKKELWGICIFIAAVDLDEMSFTFTELQKNIEISVHKFFNLLKEIDTSTKVDNAMSRLLKKYDVLFALFSKLERTCELIYLTQPSSSISTEINSALVLKVSWITFLLAKGEVLQMEDDLVISFQLMLCVLDYFIKLSPPMLLKEPYKTAVIPINGSPRTPRRGQNRSARIAKQLENDTRIIEVLCKEHECNIDEVKNVYFKNFIPFMNSLGLVTSNGLPEVENLSKRYEEIYLKNKDLDARLFLDHDKTLQTDSIDSFETQRTPRKSNLDEEVNVIPPHTPVRTVMNTIQQLMMILNSASDQPSENLISYFNNCTVNPKESILKRVKDIGYIFKEKFAKAVGQGCVEIGSQRYKLGVRLYYRVMESMLKSEEERLSIQNFSKLLNDNIFHMSLLACALEVVMATYSRSTSQNLDSGTDLSFPWILNVLNLKAFDFYKVIESFIKAEGNLTREMIKHLERCEHRIMESLAWLSDSPLFDLIKQSKDREGPTDHLESACPLNLPLQNNHTAADMYLSPVRSPKKKGSTTRVNSTANAETQATSAFQTQKPLKSTSLSLFYKKVYRLAYLRLNTLCERLLSEHPELEHIIWTLFQHTLQNEYELMRDRHLDQIMMCSMYGICKVKNIDLKFKIIVTAYKDLPHAVQETFKRVLIKEEEYDSIIVFYNSVFMQRLKTNILQYASTRPPTLSPIPHIPRSPYKFPSSPLRIPGGNIYISPLKSPYKISEGLPTPTKMTPRSRILVSIGESFGTSEKFQKINQMVCNSDRVLKRSAEGSNPPKPLKKLRFDIEGSDEADGSKHLPGESKFQQKLAEMTSTRTRMQKQKMNDSMDTSNKEEK
notes: also called f:RB; f: RB
binding result [2]: binds

B4: GST-RB (379-772) (other, UniProt P06400 379-772, looked up)
chain: MNTIQQLMMILNSASDQPSENLISYFNNCTVNPKESILKRVKDIGYIFKEKFAKAVGQGCVEIGSQRYKLGVRLYYRVMESMLKSEEERLSIQNFSKLLNDNIFHMSLLACALEVVMATYSRSTSQNLDSGTDLSFPWILNVLNLKAFDFYKVIESFIKAEGNLTREMIKHLERCEHRIMESLAWLSDSPLFDLIKQSKDREGPTDHLESACPLNLPLQNNHTAADMYLSPVRSPKKKGSTTRVNSTANAETQATSAFQTQKPLKSTSLSLFYKKVYRLAYLRLNTLCERLLSEHPELEHIIWTLFQHTLQNEYELMRDRHLDQIMMCSMYGICKVKNIDLKFKIIVTAYKDLPHAVQETFKRVLIKEEEYDSIIVFYNSVFMQRLKTNILQYA
notes: Expressed in E. coli; not shown: glutathione S-transferase (GST) fusion partner of vector pGEX6P-1
binding result [3]: no binding

B5: GST-RB (646-928) (other, UniProt P06400 646-928, looked up)
chain: SLSLFYKKVYRLAYLRLNTLCERLLSEHPELEHIIWTLFQHTLQNEYELMRDRHLDQIMMCSMYGICKVKNIDLKFKIIVTAYKDLPHAVQETFKRVLIKEEEYDSIIVFYNSVFMQRLKTNILQYASTRPPTLSPIPHIPRSPYKFPSSPLRIPGGNIYISPLKSPYKISEGLPTPTKMTPRSRILVSIGESFGTSEKFQKINQMVCNSDRVLKRSAEGSNPPKPLKKLRFDIEGSDEADGSKHLPGESKFQQKLAEMTSTRTRMQKQKMNDSMDTSNKEEK
notes: as for B4
binding result [3]: no binding

B6: GST-RB (379-928) (other, UniProt P06400 379-928, looked up)
chain: MNTIQQLMMILNSASDQPSENLISYFNNCTVNPKESILKRVKDIGYIFKEKFAKAVGQGCVEIGSQRYKLGVRLYYRVMESMLKSEEERLSIQNFSKLLNDNIFHMSLLACALEVVMATYSRSTSQNLDSGTDLSFPWILNVLNLKAFDFYKVIESFIKAEGNLTREMIKHLERCEHRIMESLAWLSDSPLFDLIKQSKDREGPTDHLESACPLNLPLQNNHTAADMYLSPVRSPKKKGSTTRVNSTANAETQATSAFQTQKPLKSTSLSLFYKKVYRLAYLRLNTLCERLLSEHPELEHIIWTLFQHTLQNEYELMRDRHLDQIMMCSMYGICKVKNIDLKFKIIVTAYKDLPHAVQETFKRVLIKEEEYDSIIVFYNSVFMQRLKTNILQYASTRPPTLSPIPHIPRSPYKFPSSPLRIPGGNIYISPLKSPYKISEGLPTPTKMTPRSRILVSIGESFGTSEKFQKINQMVCNSDRVLKRSAEGSNPPKPLKKLRFDIEGSDEADGSKHLPGESKFQQKLAEMTSTRTRMQKQKMNDSMDTSNKEEK
notes: Expressed in E. coli; also called large pocket domain of RB as GST fusion; not shown: glutathione S-transferase (GST) fusion partner of vector pGEX6P-1
binding result [4]: binds

B7: GST-RB (379-646) (other, UniProt P06400 379-646, looked up)
chain: MNTIQQLMMILNSASDQPSENLISYFNNCTVNPKESILKRVKDIGYIFKEKFAKAVGQGCVEIGSQRYKLGVRLYYRVMESMLKSEEERLSIQNFSKLLNDNIFHMSLLACALEVVMATYSRSTSQNLDSGTDLSFPWILNVLNLKAFDFYKVIESFIKAEGNLTREMIKHLERCEHRIMESLAWLSDSPLFDLIKQSKDREGPTDHLESACPLNLPLQNNHTAADMYLSPVRSPKKKGSTTRVNSTANAETQATSAFQTQKPLKSTS
notes: as for B4
binding result [3]: no binding

B8: FLAG-tagged MTAF600 (3910-4851), Q5T4S7 3910-4851 (protein)
chain: FDYNLRRGAAAMREEVRQLMCLLTRDNPEATQQMNDLIIGKVSTALKSHWANPDLASSLQYEMLLLTDSISKEDSCWELRLRCALSLFLMAVNIKTPVVVENITLMCLRILQKLIKPPAPTSKKNKDVPVEALTTVKPYCNEIHAQAQLWLKRDPKASYDAWKKCLPIRGIDGNGKAPSKSELRHLYLTEKYVWRWKQFLSRRGKRTSPLDLKLGHNNWLRQVLFTPATQAARQAACTIVEALATIPSRKQQVLDLLTSYLDELSIAGECAAEYLALYQKLITSAHWKVYLAARGVLPYVGNLITKEIARLLALEEATLSTDLQQGYALKSLTGLLSSFVEVESIKRHFKSRLVGTVLNGYLCLRKLVVQRTKLIDETQDMLLEMLEDMTTGTESETKAFMAVCIETAKRYNLDDYRTPVFIFERLCSIIYPEENEVTEFFVTLEKDPQQEDFLQGRMPGNPYSSNEPGIGPLMRDIKNKICQDCDLVALLEDDSGMELLVNNKIISLDLPVAEVYKKVWCTTNEGEPMRIVYRMRGLLGDATEEFIESLDSTTDEEEDEEEVYKMAGVMAQCGGLECMLNRLAGIRDFKQGRHLLTVLLKLFSYCVKVKVNRQQLVKLEMNTLNVMLGTLNLALVAEQESKDSGGAAVAEQVLSIMEIILDESNAEPLSEDKGNLLLTGDKDQLVMLLDQINSTFVRSNPSVLQGLLRIIPYLSFGEVEKMQILVERFKPYCNFDKYDEDHSGDDKVFLDCFCKIAAGIKNNSNGHQLKDLILQKGITQNALDYMKKHIPSAKNLDADIWKKFLSRPALPFILRLLRGLAIQHPGTQVLIGTDSIPNLHKLEQVSSDEGIGTLAENLLEALREHPDVNKKIDAARRETRAEKKRMAMAMRQKALGTLGMTTNEKGQVVTKTALLKQMEELIEEPGLTCCICREGYKFQPTK
cells in S-phase at 24 hr after replating (FACS, stably transfected U2OS cells; control cells 64%) [5]: 37%
